Measurements as given in PMC3955203.

Target: Blinkin (UniProt Q8NG31)
Experiment: GST pull-down from mitotic lysate
Details: sites Y207

Row | binding against the reference (reference: GST-Bub3 WT without His-PKM2) | binding against the reference (reference: GST-Bub3 WT with His-PKM2, no PEP) | binding against the reference (reference: GST-Bub3 WT, PEP, no His-PKM2) | Substance
1 | stronger | – | – | Bub3 (from UniProt O43684) GST-Bub3 WT incubated with His-PKM2
2 | – | stronger | stronger | Bub3 (from UniProt O43684) GST-Bub3 WT with His-PKM2 and PEP
